The target of one data set is T1, PXR (Homo sapiens, UniProt O75469 O75469:1-434).
T1 sequence: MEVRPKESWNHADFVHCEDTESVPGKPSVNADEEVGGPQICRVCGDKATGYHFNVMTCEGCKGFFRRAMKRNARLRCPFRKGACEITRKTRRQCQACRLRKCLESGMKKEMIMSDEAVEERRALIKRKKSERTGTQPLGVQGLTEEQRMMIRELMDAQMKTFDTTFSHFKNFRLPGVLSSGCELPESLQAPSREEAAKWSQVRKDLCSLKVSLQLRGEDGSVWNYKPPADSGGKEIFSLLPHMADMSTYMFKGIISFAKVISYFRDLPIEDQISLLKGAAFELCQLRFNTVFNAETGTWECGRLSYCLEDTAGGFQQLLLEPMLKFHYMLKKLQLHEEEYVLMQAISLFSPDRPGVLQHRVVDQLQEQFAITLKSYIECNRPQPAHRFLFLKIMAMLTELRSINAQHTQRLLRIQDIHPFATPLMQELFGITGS
Put plainly: EMSA; PXR alone. The conditions noted are these: tags: TNT reticulocyte lysate; label: radiolabel. An excerpt:
(§1) FIG. 19 depicts the results of an electrophoretic mobility shift assay, assaying the ability of human PXR and human CAR to bind to the hA174 and hA240 elements. Binding of these nuclear receptors happens in a heterodimeric state with the human 9-cis retinoic acid receptor RXRα. From expression plasmids encoding human RXRα, […] or CAR, receptor protein was made in vitro using the TNT reticulocyte lysate coupled transcription/translation system (Promega Corp.).
(§2) Lanes 1-4: Wildtype hA174 was incubated with no receptor (mock transcription/translation) or with RXRα, PXR or CAR alone. No complex is observed using single receptors. Lanes 5 and 7: Wild-type hA174 was incubated with RXRα and PXR or RXRα and CAR, upon which complex formation between radiolabeled probe and protein is observed. Lanes 6 and 8: Same conditions as in lanes 5 and 7, but instead of wild-type hA174, a radiolabeled probe was used where the half-site 2 was mutated. No complex is formed anymore.
(In general: A gel shift assay detects complexes by their altered migration in electrophoresis.)

The target of the next data set is RXRalpha (Homo sapiens, UniProt P19793 P19793:1-462). Briefly: EMSA; RXRalpha alone. The note with it: tags: TNT reticulocyte lysate; label: radiolabel.
Description: as §1, §2

The next data set deals with PXR/RXRalpha heterodimer (Homo sapiens, UniProt O75469;P19793 O75469:1-434,P19793:1-462). Briefly: EMSA. The note with it: tags: TNT reticulocyte lysate; label: radiolabel.
Description: as §1, §2

The target in the next data set is CAR/RXRalpha heterodimer (Homo sapiens, UniProt Q14994;P19793 Q14994:1-352,P19793:1-462). Briefly: EMSA. The conditions noted are these: tags: TNT reticulocyte lysate; label: radiolabel.
Description: as §1, §2

A further data set addresses T2, CAR (Homo sapiens, UniProt Q14994 Q14994:1-352).
T2 sequence: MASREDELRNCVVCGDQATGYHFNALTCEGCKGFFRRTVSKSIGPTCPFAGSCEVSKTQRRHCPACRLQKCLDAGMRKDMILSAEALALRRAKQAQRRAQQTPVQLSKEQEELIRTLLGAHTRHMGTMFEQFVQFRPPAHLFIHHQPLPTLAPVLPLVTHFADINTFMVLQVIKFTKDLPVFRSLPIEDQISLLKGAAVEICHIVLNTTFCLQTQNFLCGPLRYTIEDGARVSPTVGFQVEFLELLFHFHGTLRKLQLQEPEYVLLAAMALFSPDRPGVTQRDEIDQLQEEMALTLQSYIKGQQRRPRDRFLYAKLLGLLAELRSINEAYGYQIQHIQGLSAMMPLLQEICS
Briefly: EMSA; CAR alone. The conditions noted are these: tags: TNT reticulocyte lysate; label: radiolabel.
Description: as §1, §2

Data set [1] has as its target T3, CXR/RXR heterodimer (Gallus gallus, UniProt A0A8V1AGS4;P28701 A0A8V1AGS4:1-375,P28701:1-467). Put plainly: EMSA; supershifted by anti-RXR. The note with it: tags: TNT T7 Quick Coupled; pSG5; label: 32P. The method, then:
(§3) Radiolabelled ADRES wild type (lanes 1-5) and mutant (lanes 6-7) sequences were incubated with in vitro transcribed/translated CXR (lanes 3-7), chicken RXR (lanes 2 and 4-7) and anti-RXR antibody (lane 5 and 7), as indicated. Arrows depict the unbound probe, the shifted CXR-RXR-probe complex, and the supershifted CXR-RXR-probe-anti-RXR antibody complex;
(§4) Chicken CXR and RXR proteins were expressed using the TNT T7 Quick Coupled Translation System (Promega) according to the manufacturers protocol. Probes were labeled by Klenow reaction in the presence of radiolabeled [α-³²P]ATP and purified over a Biospin 6 chromatography column. A volume of labeled oligonucleotide corresponding to 100,000 cpm was used for each reaction in 10 mM Tris-HCL (8.0)/40 mM KCl/0.05% Nonidet P40′/6% glycerol (vol./vol.)/1 mM DTT containing 0.2 μg of poly(dI-dC) and 2.5 μl in-vitro synthesized proteins as described previously (2, 7). To test for supershifts, 0.5 μl monoclonal anti-mouse-RXR rabbit antibody (kindly provided by P. Chambon, Université Louis Pasteur, Illkirch, France) were added to the reaction mix. This antibody has been previously tested for interactions with chicken RXR in Western blots (data not shown). The reaction mix was incubated for 20 min at room temperature and electrophoresed on a 6% polyacrylamide gel in 0.5× Tris/borate/EDTA buffer followed by autoradiography.

Data set [2] concerns the target T4, RXR (Gallus gallus, UniProt P28701 P28701:1-467).
T4 sequence: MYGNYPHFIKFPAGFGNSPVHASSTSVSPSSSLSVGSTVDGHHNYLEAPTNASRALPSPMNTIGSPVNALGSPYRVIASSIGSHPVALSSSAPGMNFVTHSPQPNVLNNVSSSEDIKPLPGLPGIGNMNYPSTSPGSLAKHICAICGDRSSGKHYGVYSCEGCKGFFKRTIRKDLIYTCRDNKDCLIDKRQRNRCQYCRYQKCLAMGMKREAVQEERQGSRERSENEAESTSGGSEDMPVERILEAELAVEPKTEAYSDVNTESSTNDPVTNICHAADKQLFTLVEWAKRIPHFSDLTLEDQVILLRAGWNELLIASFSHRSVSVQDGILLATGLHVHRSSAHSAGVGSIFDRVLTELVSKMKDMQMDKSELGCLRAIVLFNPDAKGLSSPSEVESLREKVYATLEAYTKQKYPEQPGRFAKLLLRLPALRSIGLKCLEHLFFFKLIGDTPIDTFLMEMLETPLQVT
Briefly: EMSA; RXR alone. The note with it: tags: TNT T7 Quick Coupled; pSG5; label: 32P. As for the experimental part: as §3, §4

Data set [3] has as its target T5, human 9-cis retinoic acid receptor RXRα (human, UniProt P19793 1-462).
T5 construct: also called human RXRα
T5 sequence (looked up): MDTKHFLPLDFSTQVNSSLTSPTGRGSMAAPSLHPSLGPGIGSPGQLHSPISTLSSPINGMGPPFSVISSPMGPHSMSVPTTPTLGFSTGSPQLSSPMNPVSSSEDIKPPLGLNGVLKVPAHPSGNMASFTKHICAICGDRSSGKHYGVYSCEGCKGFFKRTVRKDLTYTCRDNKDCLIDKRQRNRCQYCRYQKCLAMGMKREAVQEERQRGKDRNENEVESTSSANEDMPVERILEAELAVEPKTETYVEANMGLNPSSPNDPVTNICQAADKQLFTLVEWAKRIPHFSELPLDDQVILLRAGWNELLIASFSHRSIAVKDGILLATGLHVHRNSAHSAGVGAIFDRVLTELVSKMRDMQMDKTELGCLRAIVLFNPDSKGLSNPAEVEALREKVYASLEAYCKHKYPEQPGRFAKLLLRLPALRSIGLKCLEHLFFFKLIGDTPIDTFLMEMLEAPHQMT
Briefly: electrophoretic mobility shift, hA240 probe; no complex with single receptors (FIG. 19B).
Description: as §1
FIG. 19B: Instead of the hA174 fragment, wild-type or DR4-mutant hA240 fragment was radiolabeled and used as probe. Lanes 1-4: Wildtype hA240 was incubated with no receptor (mock transcription/translation) or with RXRα, PXR or CAR alone. No complex is observed using single receptors. Lanes 5 and 7: Wild-type hA240 was incubated with RXRα and PXR or RXRα and CAR, upon which complex formation between radiolabeled probe and protein is observed. Lanes 6 and 8: Same conditions as in lanes 5 and 7, but instead of wild-type probe, radiolabeled hA240DR4(2) mutant was used. No complex is formed.

The target in data set [4] is T4, RXR. Put plainly: EMSA; RXR alone. The note with it: tags: TNT T7 Quick Coupled; pSG5; label: 32P. The method, then:
(§5) Radiolabelled ADRES wild type (lanes 1-5) and mutant. (lanes 6-7) sequences were incubated With in vitro transcribed/translated CXR (lanes 3-7), chicken RXR (lanes 2 and 4-7) and anti-RXR antibody (Lane 5 and 7), as indicated. Arrows depict the unbound probe, the shifted CXR-RXR-probe complex, and the supershifted CXR-RXR-probe-anti-RXR antibody complex;
as §4
This is another data set of the same source.

The target of data set [5] is T3, CXR/RXR heterodimer. Put plainly: EMSA; supershifted by anti-RXR; 40 mM KCl, pH 8.0, poly(dI-dC), room temperature. The note with it: tags: TNT T7 Quick Coupled; pSG5; label: 32P. The method, then:
as §5, §4

In data set [6] the target is T3, CXR/RXR heterodimer. Put plainly: EMSA; binding virtually eliminated. The conditions noted are these: tags: TNT T7 Quick Coupled; pSG5; label: 32P. As for the experimental part:
as §5, §4

T3 sequence (chain, as listed by the source): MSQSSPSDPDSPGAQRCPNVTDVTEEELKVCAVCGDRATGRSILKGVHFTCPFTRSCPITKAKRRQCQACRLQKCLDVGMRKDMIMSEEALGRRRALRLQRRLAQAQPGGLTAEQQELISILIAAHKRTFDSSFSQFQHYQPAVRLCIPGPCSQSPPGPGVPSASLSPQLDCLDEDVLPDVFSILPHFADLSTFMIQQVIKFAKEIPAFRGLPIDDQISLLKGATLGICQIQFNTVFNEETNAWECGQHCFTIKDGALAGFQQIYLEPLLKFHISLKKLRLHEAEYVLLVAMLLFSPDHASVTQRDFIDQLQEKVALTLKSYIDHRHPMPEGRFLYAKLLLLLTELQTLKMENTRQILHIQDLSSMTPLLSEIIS

B1: hA174 (dsDNA)
DNA 1: GCGCAAAGTCAACACAAGCCTCTCCACCGTGTGTCCATGTTTATGTGTATGCGCTGTGCCCCGTCATGCCACCTGGACGCAGGGACTCCAGTGACCTCTCCTTGCACAAGCCTCTGCTGGTTTGGGAAAGATTGGCATGACATCAGCCAAGCTCTGGCCTTGCCTTTTTTCCCT
DNA 2: AGGGAAAAAAGGCAAGGCCAGAGCTTGGCTGATGTCATGCCAATCTTTCCCAAACCAGCAGAGGCTTGTGCAAGGAGAGGTCACTGGAGTCCCTGCGTCCAGGTGGCATGACGGGGCACAGCGCATACACATAAACATGGACACACGGTGGAGAGGCTTGTGTTGACTTTGCGC
B1: the binding result is reported as “no binding” with PXR; “no binding” with RXRalpha; “binds” with PXR/RXRalpha heterodimer; “binds” with CAR/RXRalpha heterodimer; “no binding” with CAR.

B2: 167 bp ADRES (dsDNA)
DNA 1: CTGCCTCCAGTCCTGAACTTTCTCTGCTGGGATGAGCAGAGTTCACGCTCGGCTGAACTCGTGACTGTGTCAACAGGGGGCATGAAGATCAGCACCAGGCAAAGGTGAGCGGAGTGCACAAGAATGAGGCAGAGACCTTTGGGACAAAGAGTTCCCCACCCGTGGGG
DNA 2: CCCCACGGGTGGGGAACTCTTTGTCCCAAAGGTCTCTGCCTCATTCTTGTGCACTCCGCTCACCTTTGCCTGGTGCTGATCTTCATGCCCCCTGTTGACACAGTCACGAGTTCAGCCGAGCGTGAACTCTGCTCATCCCAGCAGAGAAAGTTCAGGACTGGAGGCAG
As to B2, the values for the binding result with CXR/RXR heterodimer [1] and with RXR [2] were “binds” and “no binding”, respectively.

B3: human pregnane X receptor (PXR) (receptor, UniProt O75469 1-434, looked up)
chain: MEVRPKESWNHADFVHCEDTESVPGKPSVNADEEVGGPQICRVCGDKATGYHFNVMTCEGCKGFFRRAMKRNARLRCPFRKGACEITRKTRRQCQACRLRKCLESGMKKEMIMSDEAVEERRALIKRKKSERTGTQPLGVQGLTEEQRMMIRELMDAQMKTFDTTFSHFKNFRLPGVLSSGCELPESLQAPSREEAAKWSQVRKDLCSLKVSLQLRGEDGSVWNYKPPADSGGKEIFSLLPHMADMSTYMFKGIISFAKVISYFRDLPIEDQISLLKGAAFELCQLRFNTVFNAETGTWECGRLSYCLEDTAGGFQQLLLEPMLKFHYMLKKLQLHEEEYVLMQAISLFSPDRPGVLQHRVVDQLQEQFAITLKSYIECNRPQPAHRFLFLKIMAMLTELRSINAQHTQRLLRIQDIHPFATPLMQELFGITGS
notes: also called human PXR; hPXR
For the molecule B3, in data set [3], the binding result is “binds”.

B4: 176 bp ADRES (dsDNA)
DNA 1: GGGCTCCATCGGCCTCTTCAGGTTATTGCTATGTTCAACTCGTGTGACCTTCCTCCCTGTTTTCAAGGTTCTGATAACAAACTTCTAGGACAGCCTGGTGACCTTTGGCTCAGCTTCCTCTTTAAACTCCGGTGGCTTTTGCTTCATTGCCTAGTTGTTACCCAGCAGTAAAGATC
DNA 2: GATCTTTACTGCTGGGTAACAACTAGGCAATGAAGCAAAAGCCACCGGAGTTTAAAGAGGAAGCTGAGCCAAAGGTCACCAGGCTGTCCTAGAAGTTTGTTATCAGAACCTTGAAAACAGGGAGGAAGGTCACACGAGTTGAACATAGCAATAACCTGAAGAGGCCGATGGAGCCC
With B4, the binding result with RXR [4] is “no binding”; in the data set with CXR/RXR heterodimer [5], “binds”.

B5: 176 bp ADRES DR4-1/DR5 double mutant (dsDNA)
DNA 1: GGGCTCCATCGGCCTCTTCAGGTTATTGCTATGTTGGTATCGTGTCGAGTTCCTCCCTGTTTTCAAGGTTCTGATAACAAACTTCTAGGACAGCCTGGCTGCAGTTGGCGAATTCTCCTCTTTAAACTCCGGTGGCTTTTGCTTCATTGCCTAGTTGTTACCCAGCAGTAAAGATC
DNA 2: GATCTTTACTGCTGGGTAACAACTAGGCAATGAAGCAAAAGCCACCGGAGTTTAAAGAGGAGAATTCGCCAACTGCAGCCAGGCTGTCCTAGAAGTTTGTTATCAGAACCTTGAAAACAGGGAGGAACTCGACACGATACCAACATAGCAATAACCTGAAGAGGCCGATGGAGCCC
Take B5: the binding result with CXR/RXR heterodimer [6] was “no binding”.

Source of the values: patent US20050118601A1, “Enhancer sequence of the 5-aminolevulinic acid synthase gene” (priority 2002, published 2005).
